Measurements taken from article PMC4857615.

Tested on: Nc1ncnc2c1ncn2[C@@H]1O[C@H](COP(=O)(O)OP(=O)(O)OP(=O)(O)O)[C@@H](O)[C@H]1O
Experiment: purified protein
Settings: co-substrate acetate, MgCl2 6.6 mM, HEPES 84 mM, 40 °C

Row | Substance | Km | kcat | kcat/Km
1 | EutP (Salmonella enterica subsp. enterica serovar Typhimurium str. LT2) | 500 ± 200 µM | 657 s⁻¹ | 1.31e+06 ± 377000 M⁻¹ s⁻¹
2 | EutQ (Salmonella enterica subsp. enterica serovar Typhimurium str. LT2) | 500 ± 100 µM | 434 s⁻¹ | 868000 ± 145000 M⁻¹ s⁻¹
